# Laboratory results reported in publication PMC4434323.
# Assays:
# [1] = biological target: T1, T22H9.4 (T22H9.4) (Caenorhabditis elegans) (UniProt Q9TXN8)
# T1 sequence: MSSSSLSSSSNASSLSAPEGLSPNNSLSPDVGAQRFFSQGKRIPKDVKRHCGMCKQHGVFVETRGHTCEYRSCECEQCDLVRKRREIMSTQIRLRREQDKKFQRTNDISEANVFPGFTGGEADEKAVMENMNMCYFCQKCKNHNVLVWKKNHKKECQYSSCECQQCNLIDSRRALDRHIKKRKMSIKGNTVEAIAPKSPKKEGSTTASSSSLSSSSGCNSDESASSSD
# [2] = biological target: dmd-5 (F10C1.5) (Caenorhabditis elegans) (UniProt Q19291)
# [3] = biological target: T2, mab-3 (Y53C12B.5) (Caenorhabditis elegans) (UniProt O18214)
# T2 sequence: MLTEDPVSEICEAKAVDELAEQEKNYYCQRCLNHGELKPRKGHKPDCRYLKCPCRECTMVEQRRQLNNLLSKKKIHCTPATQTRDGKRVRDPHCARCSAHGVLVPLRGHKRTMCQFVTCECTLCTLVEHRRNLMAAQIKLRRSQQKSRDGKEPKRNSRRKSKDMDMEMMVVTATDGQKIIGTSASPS
# [4] = biological target: T3, Y48G1C.6 (Y48G1C.6) (Caenorhabditis elegans) (UniProt Q9N3P2)
# T3 sequence: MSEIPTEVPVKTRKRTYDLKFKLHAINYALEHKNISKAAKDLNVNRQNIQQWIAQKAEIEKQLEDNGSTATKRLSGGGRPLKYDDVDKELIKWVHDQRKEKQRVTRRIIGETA
# [5] = biological target: dmd-4 (C27C12.6) (Caenorhabditis elegans) (UniProt Q18248)
# [6] = system: T4, C34D1.1 (C34D1.1) (Caenorhabditis elegans)
# T4 sequence: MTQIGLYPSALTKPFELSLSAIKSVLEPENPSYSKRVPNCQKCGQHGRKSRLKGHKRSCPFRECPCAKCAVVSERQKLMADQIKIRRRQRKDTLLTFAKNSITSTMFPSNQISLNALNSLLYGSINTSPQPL
# [7] = biological target: T5, dmd-6 (F13G11.1) (Caenorhabditis elegans) (UniProt O62159)
# T5 sequence: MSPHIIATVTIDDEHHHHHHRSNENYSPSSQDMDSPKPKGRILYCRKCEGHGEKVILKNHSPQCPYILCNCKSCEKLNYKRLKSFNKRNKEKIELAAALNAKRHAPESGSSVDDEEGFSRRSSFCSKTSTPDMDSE
# [8] = biological target: ztf-11 (F52F12.6) (Caenorhabditis elegans) (UniProt O02274)
# ztf-11 (F52F12.6) (Caenorhabditis elegans), sequence (O02274 212-388): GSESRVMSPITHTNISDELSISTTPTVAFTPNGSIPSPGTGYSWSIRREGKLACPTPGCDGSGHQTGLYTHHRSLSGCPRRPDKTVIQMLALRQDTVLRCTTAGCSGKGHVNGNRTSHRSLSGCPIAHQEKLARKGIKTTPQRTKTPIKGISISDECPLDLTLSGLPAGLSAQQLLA
# dmd-4 (C27C12.6) (Caenorhabditis elegans), sequence (Q18248 1-114): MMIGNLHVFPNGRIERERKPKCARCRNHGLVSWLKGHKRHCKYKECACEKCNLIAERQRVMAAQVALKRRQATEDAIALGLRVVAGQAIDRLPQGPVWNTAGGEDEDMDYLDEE
# dmd-5 (F10C1.5) (Caenorhabditis elegans), sequence (Q19291 1-125): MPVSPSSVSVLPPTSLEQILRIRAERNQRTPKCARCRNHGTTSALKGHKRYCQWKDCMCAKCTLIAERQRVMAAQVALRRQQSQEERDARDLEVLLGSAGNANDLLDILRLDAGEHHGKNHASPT
sequence,measurement,setting,value
CGTTGCAA (double strand) [8-mer CGTTGCAA],binding signal (PBM E-score (-0.5 to 0.5)),[1],0.488
ACAGTTGC (double strand) [8-mer ACAGTTGC],binding signal (PBM E-score (-0.5 to 0.5)),[2],0.489
TGTTGAAA (double strand) [8-mer TGTTGAAA],binding signal (PBM E-score (-0.5 to 0.5)),[1],0.499
TCGCAACA (double strand) [8-mer TCGCAACA],binding signal (PBM E-score (-0.5 to 0.5)),[3],0.499
ACTTGCAC (double strand) [8-mer ACTTGCAC],binding signal (PBM E-score (-0.5 to 0.5)),[4],0.495
AAGATACA (double strand) [8-mer AAGATACA],binding signal (PBM E-score (-0.5 to 0.5)),[5],0.477
AATGTATC (double strand) [8-mer AATGTATC],binding signal (PBM E-score (-0.5 to 0.5)),[5],0.494
same,binding signal (PBM E-score (-0.5 to 0.5)),[2],0.485
AGTGTTTC (double strand) [8-mer AGTGTTTC],binding signal (PBM E-score (-0.5 to 0.5)),[6],0.47
TGTTTCAA (double strand) [8-mer TGTTTCAA],binding signal (PBM E-score (-0.5 to 0.5)),[6],0.485
AGATACAT (double strand) [8-mer AGATACAT],binding signal (PBM E-score (-0.5 to 0.5)),[5],0.492
AAATTTTA (double strand) [8-mer AAATTTTA],binding signal (PBM E-score (-0.5 to 0.5)),[7],0.477
GTTGAAAA (double strand) [8-mer GTTGAAAA],binding signal (PBM E-score (-0.5 to 0.5)),[1],0.495
ATTTTAAC (double strand) [8-mer ATTTTAAC],binding signal (PBM E-score (-0.5 to 0.5)),[1],0.491
GTTAAAAA (double strand) [8-mer GTTAAAAA],binding signal (PBM E-score (-0.5 to 0.5)),[1],0.494
AAAGTATC (double strand) [8-mer AAAGTATC],binding signal (PBM E-score (-0.5 to 0.5)),[5],0.492
ATTTCAAC (double strand) [8-mer ATTTCAAC],binding signal (PBM E-score (-0.5 to 0.5)),[1],0.497
GTGAAACA (double strand) [8-mer GTGAAACA],binding signal (PBM E-score (-0.5 to 0.5)),[6],0.484
ATGCAACA (double strand) [8-mer ATGCAACA],binding signal (PBM E-score (-0.5 to 0.5)),[3],0.482
ATTGTTGC (double strand) [8-mer ATTGTTGC],binding signal (PBM E-score (-0.5 to 0.5)),[3],0.486
ACTGTTGC (double strand) [8-mer ACTGTTGC],binding signal (PBM E-score (-0.5 to 0.5)),[2],0.488
ACTGCAAG (double strand) [8-mer ACTGCAAG],binding signal (PBM E-score (-0.5 to 0.5)),[4],0.493
GTGCAAGA (double strand) [8-mer GTGCAAGA],binding signal (PBM E-score (-0.5 to 0.5)),[4],0.494
ATTGTTAC (double strand) [8-mer ATTGTTAC],binding signal (PBM E-score (-0.5 to 0.5)),[2],0.476
ACTTGCAG (double strand) [8-mer ACTTGCAG],binding signal (PBM E-score (-0.5 to 0.5)),[4],0.494
AAAAGTTA (double strand) [8-mer AAAAGTTA],binding signal (PBM E-score (-0.5 to 0.5)),[7],0.486
AACTTGCA (double strand) [8-mer AACTTGCA],binding signal (PBM E-score (-0.5 to 0.5)),[4],0.494
AATTGTTA (double strand) [8-mer AATTGTTA],binding signal (PBM E-score (-0.5 to 0.5)),[2],0.478
ATCTTGCA (double strand) [8-mer ATCTTGCA],binding signal (PBM E-score (-0.5 to 0.5)),[4],0.495
TGTCGAAA (double strand) [8-mer TGTCGAAA],binding signal (PBM E-score (-0.5 to 0.5)),[1],0.495
AAATTTAT (double strand) [8-mer AAATTTAT],binding signal (PBM E-score (-0.5 to 0.5)),[7],0.479
AAACTTCG (double strand) [8-mer AAACTTCG],binding signal (PBM E-score (-0.5 to 0.5)),[8],0.487
ATTGTATC (double strand) [8-mer ATTGTATC],binding signal (PBM E-score (-0.5 to 0.5)),[5],0.491
same,binding signal (PBM E-score (-0.5 to 0.5)),[2],0.486
CCTGCAAG (double strand) [8-mer CCTGCAAG],binding signal (PBM E-score (-0.5 to 0.5)),[4],0.493
CTGCAAGA (double strand) [8-mer CTGCAAGA],binding signal (PBM E-score (-0.5 to 0.5)),[4],0.494
ATGATACA (double strand) [8-mer ATGATACA],binding signal (PBM E-score (-0.5 to 0.5)),[5],0.485
AAACATTT (double strand) [8-mer AAACATTT],binding signal (PBM E-score (-0.5 to 0.5)),[6],0.473
ATGTTGCC (double strand) [8-mer ATGTTGCC],binding signal (PBM E-score (-0.5 to 0.5)),[3],0.477
ATAGTTTC (double strand) [8-mer ATAGTTTC],binding signal (PBM E-score (-0.5 to 0.5)),[6],0.47
AAGTTTCG (double strand) [8-mer AAGTTTCG],binding signal (PBM E-score (-0.5 to 0.5)),[8],0.483
CAAACTTG (double strand) [8-mer CAAACTTG],binding signal (PBM E-score (-0.5 to 0.5)),[8],0.487
ATTGTTTC (double strand) [8-mer ATTGTTTC],binding signal (PBM E-score (-0.5 to 0.5)),[6],0.487
AGTGCAAG (double strand) [8-mer AGTGCAAG],binding signal (PBM E-score (-0.5 to 0.5)),[4],0.493
TAGATACA (double strand) [8-mer TAGATACA],binding signal (PBM E-score (-0.5 to 0.5)),[5],0.491
TGGCAACA (double strand) [8-mer TGGCAACA],binding signal (PBM E-score (-0.5 to 0.5)),[3],0.481
TGTTACAA (double strand) [8-mer TGTTACAA],binding signal (PBM E-score (-0.5 to 0.5)),[1],0.488
same,binding signal (PBM E-score (-0.5 to 0.5)),[2],0.484
AAACTTGC (double strand) [8-mer AAACTTGC],binding signal (PBM E-score (-0.5 to 0.5)),[8],0.485
AAAATTTA (double strand) [8-mer AAAATTTA],binding signal (PBM E-score (-0.5 to 0.5)),[7],0.471
ATGCAAGA (double strand) [8-mer ATGCAAGA],binding signal (PBM E-score (-0.5 to 0.5)),[4],0.495
AAATATTT (double strand) [8-mer AAATATTT],binding signal (PBM E-score (-0.5 to 0.5)),[7],0.482
TGAAACAA (double strand) [8-mer TGAAACAA],binding signal (PBM E-score (-0.5 to 0.5)),[6],0.485
ATGTTACA (double strand) [8-mer ATGTTACA],binding signal (PBM E-score (-0.5 to 0.5)),[2],0.475
AAGTTTGC (double strand) [8-mer AAGTTTGC],binding signal (PBM E-score (-0.5 to 0.5)),[8],0.483
CATGTTTC (double strand) [8-mer CATGTTTC],binding signal (PBM E-score (-0.5 to 0.5)),[6],0.469
ATTGTAAC (double strand) [8-mer ATTGTAAC],binding signal (PBM E-score (-0.5 to 0.5)),[2],0.481
TGTAGAAA (double strand) [8-mer TGTAGAAA],binding signal (PBM E-score (-0.5 to 0.5)),[1],0.489
CATGTATC (double strand) [8-mer CATGTATC],binding signal (PBM E-score (-0.5 to 0.5)),[5],0.483
TGTTAAAA (double strand) [8-mer TGTTAAAA],binding signal (PBM E-score (-0.5 to 0.5)),[1],0.496
ACAGTAAC (double strand) [8-mer ACAGTAAC],binding signal (PBM E-score (-0.5 to 0.5)),[2],0.482
ATGAAACA (double strand) [8-mer ATGAAACA],binding signal (PBM E-score (-0.5 to 0.5)),[6],0.486
TGATACAA (double strand) [8-mer TGATACAA],binding signal (PBM E-score (-0.5 to 0.5)),[5],0.489
CGCAACAA (double strand) [8-mer CGCAACAA],binding signal (PBM E-score (-0.5 to 0.5)),[3],0.487
GCATGCAA (double strand) [8-mer GCATGCAA],binding signal (PBM E-score (-0.5 to 0.5)),[4],0.496
ACTGTATC (double strand) [8-mer ACTGTATC],binding signal (PBM E-score (-0.5 to 0.5)),[2],0.484
GAAACTTC (double strand) [8-mer GAAACTTC],binding signal (PBM E-score (-0.5 to 0.5)),[8],0.481
ATTGCAAC (double strand) [8-mer ATTGCAAC],binding signal (PBM E-score (-0.5 to 0.5)),[1],0.493
ATGTATCA (double strand) [8-mer ATGTATCA],binding signal (PBM E-score (-0.5 to 0.5)),[5],0.493
same,binding signal (PBM E-score (-0.5 to 0.5)),[2],0.486
GCAACATA (double strand) [8-mer GCAACATA],binding signal (PBM E-score (-0.5 to 0.5)),[3],0.493
AAAAAGTT (double strand) [8-mer AAAAAGTT],binding signal (PBM E-score (-0.5 to 0.5)),[7],0.484
ATTCAACA (double strand) [8-mer ATTCAACA],binding signal (PBM E-score (-0.5 to 0.5)),[1],0.49
ATGTTGCG (double strand) [8-mer ATGTTGCG],binding signal (PBM E-score (-0.5 to 0.5)),[3],0.499
CATGCAAG (double strand) [8-mer CATGCAAG],binding signal (PBM E-score (-0.5 to 0.5)),[4],0.496
GTTGCAAA (double strand) [8-mer GTTGCAAA],binding signal (PBM E-score (-0.5 to 0.5)),[1],0.493
TGTAACAA (double strand) [8-mer TGTAACAA],binding signal (PBM E-score (-0.5 to 0.5)),[5],0.483
same,binding signal (PBM E-score (-0.5 to 0.5)),[2],0.484
GTCTTGCA (double strand) [8-mer GTCTTGCA],binding signal (PBM E-score (-0.5 to 0.5)),[4],0.494
ACTTGCAT (double strand) [8-mer ACTTGCAT],binding signal (PBM E-score (-0.5 to 0.5)),[4],0.493
AAATGTTA (double strand) [8-mer AAATGTTA],binding signal (PBM E-score (-0.5 to 0.5)),[7],0.475
CTTGCACC (double strand) [8-mer CTTGCACC],binding signal (PBM E-score (-0.5 to 0.5)),[4],0.494
GAAACATA (double strand) [8-mer GAAACATA],binding signal (PBM E-score (-0.5 to 0.5)),[6],0.488
TGTATCAA (double strand) [8-mer TGTATCAA],binding signal (PBM E-score (-0.5 to 0.5)),[5],0.496
same,binding signal (PBM E-score (-0.5 to 0.5)),[2],0.49
ACTGTAAC (double strand) [8-mer ACTGTAAC],binding signal (PBM E-score (-0.5 to 0.5)),[2],0.49
GATACATA (double strand) [8-mer GATACATA],binding signal (PBM E-score (-0.5 to 0.5)),[5],0.482
AAGTTTGG (double strand) [8-mer AAGTTTGG],binding signal (PBM E-score (-0.5 to 0.5)),[8],0.485
